Experimental data from IntAct's records for PubMed 35512704.

B1: Mothers against decapentaplegic homolog 4 (Homo sapiens), Q13485 (parent)
chain: MDNMSITNTPTSNDACLSIVHSLMCHRQGGESETFAKRAIESLVKKLKEKKDELDSLITAITTNGAHPSKCVTIQRTLDGRLQVAGRKGFPHVIYARLWRWPDLHKNELKHVKYCQYAFDLKCDSVCVNPYHYERVVSPGIDLSGLTLQSNAPSSMMVKDEYVHDFEGQPSLSTEGHSIQTIQHPPSNRASTETYSTPALLAPSESNATSTANFPNIPVASTSQPASILGGSHSEGLLQIASGPQPGQQQNGFTGQPATYHHNSTTTWTGSRTAPYTPNLPHHQNGHLQHHPPMPPHPGHYWPVHNELAFQPPISNHPAPEYWCSIAYFEMDVQVGETFKVPSSCPIVTVDGYVDPSGGDRFCLGQLSNVHRTEAIERARLHIGKGVQLECKGEGDVWVRCLSDHAVFVQSYYLDREAGRAPGDAVHKIYPSAYIKVFDLRQCHRQMQQQAATAQAAAAAQAAAVAGNIPGPGSVGGIAPAISLSAAAGIGVDDLRRLCILRMSFVKGWGPDYPRQSIKETPCWIEIHLHRALQLLDEVLHTMPIADPQPLD

Variants of: B1
Details: with smad3_human SMAD3, P84022

effect of a mutation on the interaction | Variant
disrupting interaction strength | D351H

Variants of: B1
Details: with agap2_human AGAP2, Q99490

effect of a mutation on the interaction | Variant
with no effect | D351H

Variants of: B1
Details: with ajuba_human AJUBA

effect of a mutation on the interaction | Variant
with no effect | D351H

Variants of: B1
Details: with akts1_human AKT1S1, Q96B36

effect of a mutation on the interaction | Variant
with no effect | D351H

Variants of: B1
Details: with akt2_human AKT2, P31751

effect of a mutation on the interaction | Variant
with no effect | D351H

Variants of: B1
Details: with alk_human ALK

effect of a mutation on the interaction | Variant
with no effect | D351H

Variants of: B1
Details: with aph1a_human APH1A

effect of a mutation on the interaction | Variant
with no effect | D351H

Variants of: B1
Details: with arnt_human ARNT

effect of a mutation on the interaction | Variant
with no effect | D351H

Variants of: B1
Details: with arc1a_human ARPC1A

effect of a mutation on the interaction | Variant
with no effect | D351H

Variants of: B1
Details: with asxl1_human ASXL1, Q8IXJ9

effect of a mutation on the interaction | Variant
with no effect | D351H

Variants of: B1
Details: with atpb_human ATP5F1B

effect of a mutation on the interaction | Variant
with no effect | D351H

Variants of: B1
Details: with aurkb_human AURKB

effect of a mutation on the interaction | Variant
with no effect | D351H

Variants of: B1
Details: with ufo_human AXL

effect of a mutation on the interaction | Variant
with no effect | D351H

Variants of: B1
Details: with za2g_human AZGP1, P25311

effect of a mutation on the interaction | Variant
with no effect | D351H

Variants of: B1
Details: with b2mg_human B2M

effect of a mutation on the interaction | Variant
with no effect | D351H

Variants of: B1
Details: with becn1_human BECN1, Q14457

effect of a mutation on the interaction | Variant
with no effect | D351H

Variants of: B1
Details: with birc2_human BIRC2, Q13490

effect of a mutation on the interaction | Variant
with no effect | D351H

Variants of: B1
Details: with braf_human BRAF

effect of a mutation on the interaction | Variant
with no effect | D351H

Variants of: B1
Details: with baba2_human BABAM2, Q9NXR7

effect of a mutation on the interaction | Variant
with no effect | D351H

Variants of: B1
Details: with btg1_human BTG1, P62324

effect of a mutation on the interaction | Variant
with no effect | D351H

Variants of: B1
Details: with cbl_human CBL

effect of a mutation on the interaction | Variant
with no effect | D351H

Variants of: B1
Details: with cblb_human CBLB

effect of a mutation on the interaction | Variant
with no effect | D351H

Variants of: B1
Details: with ccnd1_human CCND1, P24385
ccnd1_human CCND1, P24385, sequence (P24385 whole entry): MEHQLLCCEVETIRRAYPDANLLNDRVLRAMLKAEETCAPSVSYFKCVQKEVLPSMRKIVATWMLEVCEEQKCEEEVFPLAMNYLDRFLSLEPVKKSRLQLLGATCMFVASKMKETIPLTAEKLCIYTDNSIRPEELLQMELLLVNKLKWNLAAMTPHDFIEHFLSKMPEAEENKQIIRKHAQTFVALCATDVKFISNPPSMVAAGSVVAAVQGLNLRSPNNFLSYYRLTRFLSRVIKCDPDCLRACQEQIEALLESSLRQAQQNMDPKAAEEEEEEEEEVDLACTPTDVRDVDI

effect of a mutation on the interaction | Variant
with no effect | D351H

Variants of: B1
Details: with ccnd2_human CCND2, P30279
ccnd2_human CCND2, P30279, sequence (P30279 whole entry): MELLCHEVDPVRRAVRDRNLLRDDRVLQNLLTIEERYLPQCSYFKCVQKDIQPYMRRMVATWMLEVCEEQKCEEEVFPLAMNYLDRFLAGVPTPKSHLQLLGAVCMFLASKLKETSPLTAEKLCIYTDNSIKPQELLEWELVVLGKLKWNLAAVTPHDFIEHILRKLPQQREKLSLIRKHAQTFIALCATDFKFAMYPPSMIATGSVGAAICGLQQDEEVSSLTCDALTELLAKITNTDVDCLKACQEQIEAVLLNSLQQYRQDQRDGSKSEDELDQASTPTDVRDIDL

effect of a mutation on the interaction | Variant
with no effect | D351H

Variants of: B1
Details: with ccnd3_human CCND3, P30281

effect of a mutation on the interaction | Variant
with no effect | D351H

Variants of: B1
Details: with ccne1_human CCNE1, P24864

effect of a mutation on the interaction | Variant
with no effect | D351H

Variants of: B1
Details: with cd44_human CD44, P16070
cd44_human CD44, P16070, sequence (P16070 whole entry): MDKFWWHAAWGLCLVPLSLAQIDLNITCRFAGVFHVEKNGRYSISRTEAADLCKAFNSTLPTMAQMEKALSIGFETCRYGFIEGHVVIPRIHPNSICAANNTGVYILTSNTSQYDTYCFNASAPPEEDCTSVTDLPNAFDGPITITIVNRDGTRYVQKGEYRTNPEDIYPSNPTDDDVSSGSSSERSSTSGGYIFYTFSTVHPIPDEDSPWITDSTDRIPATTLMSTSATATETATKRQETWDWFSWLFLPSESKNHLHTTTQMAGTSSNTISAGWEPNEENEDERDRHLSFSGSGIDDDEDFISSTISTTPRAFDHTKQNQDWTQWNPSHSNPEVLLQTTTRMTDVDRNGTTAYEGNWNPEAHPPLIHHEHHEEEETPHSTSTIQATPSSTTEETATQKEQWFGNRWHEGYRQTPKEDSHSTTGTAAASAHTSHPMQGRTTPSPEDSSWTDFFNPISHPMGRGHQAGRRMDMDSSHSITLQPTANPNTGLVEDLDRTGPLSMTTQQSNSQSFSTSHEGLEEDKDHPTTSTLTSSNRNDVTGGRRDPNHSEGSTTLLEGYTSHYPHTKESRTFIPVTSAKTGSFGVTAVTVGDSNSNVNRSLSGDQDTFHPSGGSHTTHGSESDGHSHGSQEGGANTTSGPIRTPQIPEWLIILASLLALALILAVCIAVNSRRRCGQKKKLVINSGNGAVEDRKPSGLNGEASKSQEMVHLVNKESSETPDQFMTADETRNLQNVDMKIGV

effect of a mutation on the interaction | Variant
with no effect | D351H

Variants of: B1
Details: with cd79b_human CD79B

effect of a mutation on the interaction | Variant
with no effect | D351H

Variants of: B1
Details: with cdk4_human CDK4, P11802

effect of a mutation on the interaction | Variant
with no effect | D351H

Variants of: B1
Details: with cdn2b_human CDKN2B

effect of a mutation on the interaction | Variant
with no effect | D351H

Variants of: B1
Details: with cdn2c_human CDKN2C

effect of a mutation on the interaction | Variant
with no effect | D351H

Variants of: B1
Details: with cebpa_human CEBPA

effect of a mutation on the interaction | Variant
with no effect | D351H

Variants of: B1
Details: with chd1l_human CHD1L

effect of a mutation on the interaction | Variant
with no effect | D351H

Variants of: B1
Details: with chd2_human CHD2, O14647

effect of a mutation on the interaction | Variant
with no effect | D351H

Variants of: B1
Details: with ch3l1_human CHI3L1, P36222

effect of a mutation on the interaction | Variant
with no effect | D351H

Variants of: B1
Details: with csf1r_human CSF1R

effect of a mutation on the interaction | Variant
with no effect | D351H

Variants of: B1
Details: with ctna1_human CTNNA1, P35221

effect of a mutation on the interaction | Variant
with no effect | D351H

Variants of: B1
Details: with ctnb1_human CTNNB1, P35222

effect of a mutation on the interaction | Variant
with no effect | D351H

Variants of: B1
Details: with cul3_human CUL3, Q13618

effect of a mutation on the interaction | Variant
with no effect | D351H

Variants of: B1
Details: with dicer_human DICER1, Q9UPY3

effect of a mutation on the interaction | Variant
with no effect | D351H

Variants of: B1
Details: with duox2_human DUOX2, Q9NRD8

effect of a mutation on the interaction | Variant
with no effect | D351H

Variants of: B1
Details: with e2f1_human E2F1, Q01094

effect of a mutation on the interaction | Variant
with no effect | D351H

Variants of: B1
Details: with e2f2_human E2F2, Q14209

effect of a mutation on the interaction | Variant
with no effect | D351H

Variants of: B1
Details: with e2f3_human E2F3, O00716

effect of a mutation on the interaction | Variant
with no effect | D351H

Variants of: B1
Details: with e2f4_human E2F4, Q16254

effect of a mutation on the interaction | Variant
with no effect | D351H

Variants of: B1
Details: with e2f5_human E2F5, Q15329
e2f5_human E2F5, Q15329, sequence (Q15329 whole entry): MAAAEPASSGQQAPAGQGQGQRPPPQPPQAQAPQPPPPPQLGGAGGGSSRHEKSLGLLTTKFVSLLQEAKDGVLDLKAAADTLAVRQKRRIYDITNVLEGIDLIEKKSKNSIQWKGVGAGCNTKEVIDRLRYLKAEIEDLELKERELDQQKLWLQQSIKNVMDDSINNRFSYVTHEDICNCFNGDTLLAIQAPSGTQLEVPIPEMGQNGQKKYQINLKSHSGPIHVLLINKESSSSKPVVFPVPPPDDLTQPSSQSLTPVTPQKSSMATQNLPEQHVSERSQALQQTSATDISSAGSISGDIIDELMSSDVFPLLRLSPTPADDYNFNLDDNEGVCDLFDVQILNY

effect of a mutation on the interaction | Variant
with no effect | D351H

Variants of: B1
Details: with if4e_human EIF4E

effect of a mutation on the interaction | Variant
with no effect | D351H

Variants of: B1
Details: with epha7_human EPHA7, Q15375

effect of a mutation on the interaction | Variant
with no effect | D351H

Variants of: B1
Details: with ephb1_human EPHB1, P54762
ephb1_human EPHB1, P54762, sequence (P54762 whole entry): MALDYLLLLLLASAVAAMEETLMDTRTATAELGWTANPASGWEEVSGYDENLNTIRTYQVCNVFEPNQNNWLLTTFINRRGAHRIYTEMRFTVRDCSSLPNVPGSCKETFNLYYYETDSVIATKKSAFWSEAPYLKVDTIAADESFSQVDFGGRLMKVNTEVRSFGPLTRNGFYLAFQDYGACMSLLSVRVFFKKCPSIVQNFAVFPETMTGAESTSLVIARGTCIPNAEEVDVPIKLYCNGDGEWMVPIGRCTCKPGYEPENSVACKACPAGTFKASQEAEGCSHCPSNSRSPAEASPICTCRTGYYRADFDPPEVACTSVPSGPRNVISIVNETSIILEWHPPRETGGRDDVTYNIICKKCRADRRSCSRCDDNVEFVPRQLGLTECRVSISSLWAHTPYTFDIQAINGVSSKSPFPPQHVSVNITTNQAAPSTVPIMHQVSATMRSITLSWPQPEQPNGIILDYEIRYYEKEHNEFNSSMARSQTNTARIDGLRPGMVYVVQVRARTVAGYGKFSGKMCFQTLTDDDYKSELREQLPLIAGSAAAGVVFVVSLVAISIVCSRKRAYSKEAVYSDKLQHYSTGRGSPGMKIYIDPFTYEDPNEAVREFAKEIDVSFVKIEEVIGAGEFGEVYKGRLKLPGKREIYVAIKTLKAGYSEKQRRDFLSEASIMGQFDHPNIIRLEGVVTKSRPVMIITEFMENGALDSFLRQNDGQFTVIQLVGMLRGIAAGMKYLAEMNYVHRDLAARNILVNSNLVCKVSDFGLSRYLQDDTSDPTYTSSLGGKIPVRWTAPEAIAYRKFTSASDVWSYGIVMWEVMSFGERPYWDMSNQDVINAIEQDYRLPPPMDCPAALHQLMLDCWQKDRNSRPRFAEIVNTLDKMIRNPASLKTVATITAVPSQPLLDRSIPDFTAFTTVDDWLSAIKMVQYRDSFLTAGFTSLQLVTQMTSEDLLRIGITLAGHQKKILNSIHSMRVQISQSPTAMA

effect of a mutation on the interaction | Variant
with no effect | D351H

Variants of: B1
Details: with erbb3_human ERBB3, P21860

effect of a mutation on the interaction | Variant
with no effect | D351H

Variants of: B1
Details: with erbb4_human ERBB4, Q15303
erbb4_human ERBB4, Q15303, sequence (Q15303 whole entry): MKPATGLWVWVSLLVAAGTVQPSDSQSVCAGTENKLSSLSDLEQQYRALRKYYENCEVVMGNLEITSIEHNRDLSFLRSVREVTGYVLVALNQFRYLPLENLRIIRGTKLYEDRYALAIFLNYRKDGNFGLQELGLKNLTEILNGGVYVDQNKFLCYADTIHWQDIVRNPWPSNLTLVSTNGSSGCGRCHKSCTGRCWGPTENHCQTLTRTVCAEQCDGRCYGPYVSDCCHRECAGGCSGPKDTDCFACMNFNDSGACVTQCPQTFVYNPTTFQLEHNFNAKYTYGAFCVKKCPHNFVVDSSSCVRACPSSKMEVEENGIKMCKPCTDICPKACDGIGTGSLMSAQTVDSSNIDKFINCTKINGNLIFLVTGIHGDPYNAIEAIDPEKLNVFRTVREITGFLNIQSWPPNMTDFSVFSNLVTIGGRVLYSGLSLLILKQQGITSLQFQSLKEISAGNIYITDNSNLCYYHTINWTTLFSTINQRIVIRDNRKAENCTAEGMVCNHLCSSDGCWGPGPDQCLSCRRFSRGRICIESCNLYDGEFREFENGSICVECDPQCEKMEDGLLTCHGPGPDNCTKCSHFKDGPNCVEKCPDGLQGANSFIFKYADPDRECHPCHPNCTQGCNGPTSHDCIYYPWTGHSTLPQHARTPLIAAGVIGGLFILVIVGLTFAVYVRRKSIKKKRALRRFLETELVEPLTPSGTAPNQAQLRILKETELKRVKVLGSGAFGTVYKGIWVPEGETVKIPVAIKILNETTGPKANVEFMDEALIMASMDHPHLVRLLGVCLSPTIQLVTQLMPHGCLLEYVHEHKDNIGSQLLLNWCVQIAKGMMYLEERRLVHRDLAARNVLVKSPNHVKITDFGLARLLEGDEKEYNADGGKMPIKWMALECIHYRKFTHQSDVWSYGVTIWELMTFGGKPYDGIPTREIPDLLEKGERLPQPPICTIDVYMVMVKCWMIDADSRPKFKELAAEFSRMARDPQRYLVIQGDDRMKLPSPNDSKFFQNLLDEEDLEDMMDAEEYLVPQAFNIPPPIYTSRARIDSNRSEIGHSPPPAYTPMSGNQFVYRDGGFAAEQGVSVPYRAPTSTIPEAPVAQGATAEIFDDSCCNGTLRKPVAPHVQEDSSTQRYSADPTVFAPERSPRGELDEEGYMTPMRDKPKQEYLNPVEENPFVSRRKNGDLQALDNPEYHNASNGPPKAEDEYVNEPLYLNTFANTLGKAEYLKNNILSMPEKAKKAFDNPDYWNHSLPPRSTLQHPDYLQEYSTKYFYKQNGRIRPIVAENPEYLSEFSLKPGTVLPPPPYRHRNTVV

effect of a mutation on the interaction | Variant
with no effect | D351H

Variants of: B1
Details: with esr1_human ESR1, P03372
esr1_human ESR1, P03372, sequence (P03372 whole entry): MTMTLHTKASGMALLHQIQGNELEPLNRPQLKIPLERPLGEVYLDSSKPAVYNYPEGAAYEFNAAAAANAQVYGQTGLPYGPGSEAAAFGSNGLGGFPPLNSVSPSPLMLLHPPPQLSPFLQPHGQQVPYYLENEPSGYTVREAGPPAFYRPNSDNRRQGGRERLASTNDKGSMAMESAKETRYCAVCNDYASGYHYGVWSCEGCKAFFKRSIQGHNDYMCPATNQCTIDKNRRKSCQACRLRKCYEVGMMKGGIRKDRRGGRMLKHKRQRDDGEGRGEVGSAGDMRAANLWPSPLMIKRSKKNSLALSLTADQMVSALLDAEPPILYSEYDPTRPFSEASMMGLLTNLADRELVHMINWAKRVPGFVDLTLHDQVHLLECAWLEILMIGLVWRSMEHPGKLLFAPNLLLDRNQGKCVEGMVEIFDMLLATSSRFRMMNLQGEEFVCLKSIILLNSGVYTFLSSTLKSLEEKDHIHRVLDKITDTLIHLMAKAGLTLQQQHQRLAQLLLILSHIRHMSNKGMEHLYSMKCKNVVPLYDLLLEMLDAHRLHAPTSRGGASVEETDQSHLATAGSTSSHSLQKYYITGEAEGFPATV

effect of a mutation on the interaction | Variant
with no effect | D351H

Variants of: B1
Details: with etv1_human ETV1, P50549
etv1_human ETV1, P50549, sequence (P50549 whole entry): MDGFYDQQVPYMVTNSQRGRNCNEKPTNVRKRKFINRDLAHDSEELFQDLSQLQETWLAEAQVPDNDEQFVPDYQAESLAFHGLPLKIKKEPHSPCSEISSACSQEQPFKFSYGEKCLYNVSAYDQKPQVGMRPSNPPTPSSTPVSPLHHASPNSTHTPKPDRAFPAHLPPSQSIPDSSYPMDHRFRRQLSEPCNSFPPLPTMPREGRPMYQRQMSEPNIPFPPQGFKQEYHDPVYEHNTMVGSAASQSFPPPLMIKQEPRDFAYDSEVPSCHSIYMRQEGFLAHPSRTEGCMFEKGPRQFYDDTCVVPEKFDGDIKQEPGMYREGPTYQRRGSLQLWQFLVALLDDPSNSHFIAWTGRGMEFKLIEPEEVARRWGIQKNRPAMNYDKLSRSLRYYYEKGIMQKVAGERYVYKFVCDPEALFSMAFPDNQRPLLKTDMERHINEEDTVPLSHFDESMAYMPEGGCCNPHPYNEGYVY

effect of a mutation on the interaction | Variant
with no effect | D351H

Variants of: B1
Details: with fadd_human FADD

effect of a mutation on the interaction | Variant
with no effect | D351H

Variants of: B1
Details: with facd2_human FANCD2, Q9BXW9

effect of a mutation on the interaction | Variant
with no effect | D351H

Variants of: B1
Details: with fgf19_human FGF19, O95750

effect of a mutation on the interaction | Variant
with no effect | D351H

Variants of: B1
Details: with fgfp1_human FGFBP1, Q14512

effect of a mutation on the interaction | Variant
with no effect | D351H

Variants of: B1
Details: with fgfr3_human FGFR3, P22607

effect of a mutation on the interaction | Variant
with no effect | D351H

Variants of: B1
Details: with fgfr4_human FGFR4, P22455

effect of a mutation on the interaction | Variant
with no effect | D351H

Variants of: B1
Details: with fumh_human FH

effect of a mutation on the interaction | Variant
with no effect | D351H
